From patent US20250361321A1 (Memorial Sloan Kettering, published 2025)
Numbering of substitutions follows the chain as printed.

T1: N30 mutant MUC16-C114-GFP fusion protein expressed on HEK293 cells (HEK293-MUC16mut) (human)
T1 construct: The GFP signal of this line was weaker than that of the WT line (26x against 170x MFI increase); also called MUC16c114 N30A; not shown: GFP fusion partner
T1 chain: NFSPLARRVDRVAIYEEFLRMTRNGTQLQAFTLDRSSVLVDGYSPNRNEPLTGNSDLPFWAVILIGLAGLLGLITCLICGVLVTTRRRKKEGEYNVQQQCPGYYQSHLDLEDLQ

T2: wildtype MUC16-C114-GFP fusion protein expressed on HEK293 cells (HEK293-MUC16WT) (human)
T2 construct: not shown: GFP fusion partner
T2 chain: T1 chain with A30N

B1: anti-MUC16 clone 8 BsAb (Clone 8/anti-CD3 bispecific antibody) (bispecific antibody)
chain: DIQLTQSPSAVSASVGDRVTITCRASQDVSKWLAWYQQKPGKAPRLLISAASGLQSWVPSRFSGSGSGTEFTLSISSLQPEDFATYYCQQANSFPWTFGQGTKVEIKRSRGGGGSGGGGSGGGGSLEMAQVQLQQWGAGLLKPSETLSLTCAVYGGSFSGYYWSWIRQPPGKGLEWIGEINHSGSTNYNPSLKSRVTISVDTSKNQFSLKLSSVTAADTAVYYCARQSYITDSWGQGTLVTVSSTSGGGGSDVQLVQSGAEVKKPGASVKVSCKASGYTFTRYTMHWVRQAPGQGLEWIGYINPSRGYTNYADSVKGRFTITTDKSTSTAYMELSSLRSEDTATYYCARYYDDHYCLDYWGQGTTVTVSSGEGTSTGSGGSGGSGGADDIVLTQSPATLSLSPGERATLSCRASQSVSYMNWYQQKPGKAPKRWIYDTSKVASGVPARFSGSGSGTDYSLTINSLEAEDAATYYCQQWSSNPLTFGGGTKVEIKHHHHHH
notes: It was secreted from CHO cells; also called clone 8 bispecific antibody; anti-MUC16 clone & BsAb
B2: anti-MUC16 clone 12 scFv antibody phage clone (scFv)
scFv: NFMLTQPHSVSESPGKTVTISCTRSRGSIASAYVQWYQQRPGSAPITVIYEDYERPSEIPDRFSGSIDSSSNSASLTISGLKTEDEADYYCQSYDDNDHVIFGGGTKVTVLGSRGGGGSGGGGSGGGGSLEMAQVQLQQWGAGLLKPSETLSLTCAVYGGSFSGYYWSWIRQPPGKGLEWIGEINHSGSTNYNPSLKSRIIMSVDTSKRQFSLKLRSATAADTAVYYCARWSPFSYKQMYDYWGQGTLVTVSS
notes: The phage coat fusion is not described
B3: anti-MUC16 clone 8 scFv antibody phage clone (scFv)
scFv: DIQLTQSPSAVSASVGDRVTITCRASQDVSKWLAWYQQKPGKAPRLLISAASGLQSWVPSRFSGSGSGTEFTLSISSLQPEDFATYYCQQANSFPWTFGQGTKVEIKRSRGGGGSGGGGSGGGGSLEMAQVQLQQWGAGLLKPSETLSLTCAVYGGSFSGYYWSWIRQPPGKGLEWIGEINHSGSTNYNPSLKSRVTISVDTSKNQFSLKLSSVTAADTAVYYCARQSYITDSWGQGTLVTVSS
notes: as for B2

What was measured:
[1] = target: T3, human MUC16 as expressed on MUC16+ cancer cell lines (OVCAR3, SKOV8, OVCA432) (human); assay: FACS on MUC16+ OVCAR3 cells, BsAb followed by a secondary antibody, against secondary antibody alone
T3 construct: This is endogenous MUC16 on ovarian cancer cell lines; also called hMUC16; Mucin-16
Protocol: In this example, the specificity of the anti-MUC16 BsAbs for binding to cancer cells that express MUC16 was assessed. In one study, two target cell lines were employed, a MUC16⁺ OVCAR3 cell line and a MUC16 SKOV3 cell line. OVCAR3 and SKOV3 cell lines were obtained through the American Type Culture Collection (ATCC®, Manassas, VA) and sustained in culture according to the ATCC® literature. FACS analysis of anti-MUC16 antibody binding to the two target cell lines was performed to confirm that antibody binding was observed only with the MUC16+ OVCAR3 cell line. SKOV3 or OVCAR3 cell lines were incubated with the anti-MUC16 Ab followed by a secondary antibody or with a secondary antibody alone as a control.

[2] = target: T1, N30 mutant MUC16-C114-GFP fusion …; assay: FACS, scFv phage on HEK293-MUC16mut cells
Protocol: (§1) 540 phage clones identified from the cell panning were then tested by FACS analysis for binding to HEK293-MUC16WT cells. Briefly, 0.2 million cells (in PBS+5% FBS+0.05% NaN₃) were incubated for 2 h at 4° C. with 50 μl of ˜[…] pfu/mL phage in PBS. FACS was carried out using primary antibody mouse anti-M13 mAb (Thermo #MAI-12900) and secondary antibody PE anti-mouse IgG (Vectors Lab #EI-2007).
(§2) The 40 MUC16 specific clones were tested for their binding to HEK293-MUC16WT. HEK293-MUC16mut, and parental HEK293 cells. […] These clones were thus specific for the N-glycosylation site (N30).

[3] = target: T2, wildtype MUC16-C114-GFP fusion protein …; assay: FACS, scFv phage on HEK293-MUC16WT cells (FIG. 5)
Protocol: as §1, §2

| Binder | MFI increase in binding over the control cells [1] | binding result [2] | binding result [3] |
| --- | --- | --- | --- |
| B1 | ~300 × (fold MFI) | – | – |
| B2 | – | no binding | binds |
| B3 | – | no binding | binds |
